From US20240009318A1 (BLISS BIOPHARMACEUTICAL HANGZHOU, published 2024) come the findings set out here.

Sequences and labels used below:
B1: BB0500-2f1 (antibody, V domains shown)
VH: QVQLQESGPGLVKPSETLSLTCTVSGGSVSSGDYYWTWIRQSPGKGLEWIGHIYYSGNANYNPSLKSRLTISIDTSKTQFSLKLSSVTAADTAIYYCVRDRVTGAFDIWGQGTMVTVSS
VL: DIQMTQSPSSLSASVGDRVTITCQASQDISNYLNWYQQKPGKAPKLLIYDASNLETGVPSRFSGSGSGTDFTFTISSLQPEDIATYFCQHFDHLPLAFGGGTKVEIKR
notes: The entries already carry the mutation; also called H2T59 single alanine mutant of panitumumab (VH T59A, VL wt)
B2: BB0500-2f2 (antibody, V domains shown)
VH: B1 VH with A59T
VL: B1 VL with D50A
notes: The entries already carry the mutation; also called L2D50 single alanine mutant of panitumumab (VH wt, VL D50A)
B3: BB0500-2f (antibody)
heavy: QVQLQESGPGLVKPSETLSLTCTVSGGSVSSGDYYWTWIRQSPGKGLEWIGHIYYSGNANYNPSLKSRLTISIDTSKTQFSLKLSSVTAADTAIYYCVRDRVTGAFDIWGQGTMVTVSSASTKGPSVFPLAPCSRSTSESTAALGCLVKDYFPEPVTVSWNSGALTSGVHTFPAVLQSSGLYSLSSVVTVPSSNFGTQTYTCNVDHKPSNTKVDKTVEPKSDKCTHTVECPPCPAPPVAGPSVFLFPPKPKDTLMISRTPEVTCVVVDVSHEDPEVQFNWYVDGVEVHNAKTKPREEQFNSTFRVVSVLTVVHQDWLNGKEYKCKVSNKGLPAPIEKTISKTKGQPREPQVYTLPPSREEMTKNQVSLTCLVKGFYPSDISVEWESNGQPENNYKTTPPMLDSDGSFFLYSKLTVDKSRWQQGNVFSCSVMHEALHNHYTQKSLSLSPGK
light: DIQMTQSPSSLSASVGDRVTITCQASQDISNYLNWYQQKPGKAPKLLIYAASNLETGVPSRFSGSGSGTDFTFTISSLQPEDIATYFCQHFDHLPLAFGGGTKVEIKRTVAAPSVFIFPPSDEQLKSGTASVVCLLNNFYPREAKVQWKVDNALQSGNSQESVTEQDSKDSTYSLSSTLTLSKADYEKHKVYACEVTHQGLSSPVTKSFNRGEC
notes: Same variable domains as BB0500-2n; the heavy chain constant part differs; also called H2T59 / L2D50 double alanine mutant of panitumumab (VH T59A, VL D50A)
B4: BB0500-2g (antibody, V domains shown)
VH: B1 VH with A59T, T103A
VL: B1 VL with Y32A
notes: also called H3T103 / L1Y32 double alanine mutant of panitumumab (VH T103A, VL Y32A)
B5: BB0500-2n (antibody)
heavy: QVQLQESGPGLVKPSETLSLTCTVSGGSVSSGDYYWTWIRQSPGKGLEWIGHIYYSGNANYNPSLKSRLTISIDTSKTQFSLKLSSVTAADTAIYYCVRDRVTGAFDIWGQGTMVTVSSASTKGPSVFPLAPCSRSTSESTAALGCLVKDYFPEPVTVSWNSGALTSGVHTFPAVLQSSGLYSLSSVVTVPSSNFGTQTYTCNVDHKPSNTKVDKTVEPPKSDCKTHTVECPPCPAPEAAGGPSVFLFPPKPKDTLMISRTPEVTCVVVDVSHEDPEVKFNWYVDGVEVHNAKTKPREEQYNSTYRVVSVLTVLHQDWLNGKEYKCKVSNKALPAPIEKTISKAKGQPREPQVYTLPPSREEMTKNQVSLTCLVKGFYPSDIAVEWESNGQPENNYKTTPPVLDSDGSFFLYSKLTVDKSRWQQGNVFSCSVMHEALHNHYTQKSLSLSPGK
light: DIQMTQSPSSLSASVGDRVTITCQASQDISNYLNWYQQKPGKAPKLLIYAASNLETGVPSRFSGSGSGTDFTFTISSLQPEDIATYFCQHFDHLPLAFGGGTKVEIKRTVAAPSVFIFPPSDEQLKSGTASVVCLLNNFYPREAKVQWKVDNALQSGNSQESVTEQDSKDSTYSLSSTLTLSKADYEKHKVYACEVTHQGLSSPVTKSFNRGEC
notes: Same variable domains as BB0500-2f; the heavy chain constant part differs
B6: BB0500-2g1 (antibody, V domains shown)
VH: B1 VH with A59T, T103A
VL: B1 VL
notes: The entries already carry the mutation; also called H3T103 single alanine mutant of panitumumab (VH T103A, VL wt)

Residue numbers refer to the chain shown, from its start. Numbers in names are those of the source.

The first test concerns the target T1, human EGFR protein (human, UniProt P00533 25-645, limits assumed).
T1 construct: The BLI text says 'human EGFR'; the ELISA text says only 'EGFR'; also called epidermal growth factor receptor; HER1
The test is described as follows: ELISA of binding to EGFR, 5-fold dilutions from 10 ug/mL, detection with HRP goat anti-human IgG Fc, OD 450/650 nm. On the technique in general: In an ELISA, binding on a coated surface is turned into a signal by an enzyme label.
Method: (§1) Mutant antibody samples or control antibodies diluted in 5-fold serial dilutions starting from 10 μg/mL and 8 dilutions total, were coated onto 96-well plates and the plates were incubated at 4° C. overnight. Using HRP-labeled goat anti-human IgG Fc antibody (Sigma, A0170) in 40000 dilution as a detection agent and TMB for colorimetric reaction, the plates read at 450/650 nm for absorbance on Microplate Reader (Molecular Devices, SpectraMax 190) and data analysis was performed using a dose response curve format four parameters logistic model.
In general, EC50 (read off the curve) refers to the concentration at which the effect is half-maximal. Higher therefore signals weaker potency. For the molecule B1, the half-maximal effective concentration (EC50 (read off the curve)) is roughly 0.02 µg/mL.

For B2, the “EC50 (read off the curve)” value was roughly 0.02 µg/mL.

As to B3, the “EC50 (read off the curve)” value was roughly 0.02 µg/mL.

Turning to B4, the “EC50 (read off the curve)” value is roughly 0.02 µg/mL.

The target of the next test is T1, human EGFR protein. The test is described as follows: BLI (Octet RED96e), antibody captured on anti-human Fc (AHC) biosensors, EGFR in solution. (In BLI a coated tip is dipped into the sample, and binding shifts an interference pattern.)
Method: Affinity tests are performed in SD buffer (0.02% Tween-20, 0.1% BSA in PBS buffer, pH 7.4) using anti-human Fc Capture (AHC) biosensors. Antibody sample or buffer are dispensed into 96-well microtiter plates. AHC biosensors (Pall FortéBio) are pre-wet with SD buffer to establish a baseline before protein immobilization. The antibody sample is immobilized onto the biosensors. […] Mutant and control antibodies binding is evaluated at various concentrations of EGFR. Data are generated automatically by the Data Acquisition software, and data analysis is performed using FortéBio Data Analysis software.
By Kd is commonly meant the equilibrium constant for the complex coming apart. A low value points to higher affinity. A word on the koff: it is a measure of how fast the partners let go of each other. One may read the kon as the second-order rate constant of association. For the molecule B5, the Kd is 44.1 nM, the koff was found to be 0.024 s⁻¹ and the on-rate constant (kon) came to 543000 M⁻¹ s⁻¹.

Molecule B1 yielded a Kd of 1.12 nM, a koff of 0.000736 s⁻¹ and an on-rate (kon) of 655000 M⁻¹ s⁻¹.

With B2, the affinity, expressed as Kd, was 28.3 nM; the koff is 0.0154 s⁻¹; the kon came out at 543000 M⁻¹ s⁻¹.

On to B4, for which binding was put at a Kd of 38.8 nM, the koff worked out at 0.0272 s⁻¹ and the kon amounted to 701000 M⁻¹ s⁻¹.

Another test addresses T1, human EGFR protein. In words: ELISA.
Method: as §1
As to B6, the “EC50 fold change against wt control” value is roughly 100 fold.
